B1: 060816-H05 (protein)
chain: MALPVTALLLPLALLLHAARPDEIVLTQSPATLSLSPGERATLSCSASSSVSYMHWYQQKPGQAPRLLIYDTSKLASGIPARFSGSGSGTDFTLTISSLEPEDVAVYYCFQGSVYPFTFGQGTKLEIKRGGGGSGGGGSGGGGSQVQLQESGPGLVKPSQTLSLTCTVSGGSISTSGMGVGWIRQHPGKGLEWIGHIWWDDDKRYNPALKSRVTISVDTSKNQFSLKLSSVTAADTAVYYCARMELWSYYFDYWGQGTLVTVSSTREQKLISEEDGSGTPFPSLAPPIMLLVDGKQQMVVVCLVLDVAPPGLDSPIWFSAGNGSALDAFTYGPSPATDGTWTNLAHLSLPSEELASWEPLVCHTGPGAEGHSRSTQPMHLSGEASTARTCPQEPLRGTPGGALWLGVLRLLLFKLLLFDLLLTCSCLCDPAGPLPSPATTTRLRALGSHRLHPATETGGREATSSPRPQPRDRRWGDTPPGRKPGSPVRAKRSGSGVKQTLNFDLLKLAGDVESNPGPSRGHMTEYKPTVRLATRDDVPRAVRTLAAAFADYPATRHTVDPDRHIERVTELQELFLTRVGLDIGKVWVADDGAAVAVWTTPESVEAGAVFAEIGPRMAELSGSRLAAQQQMEGLLAPHRPKEPAWFLATVGVSPDHQGKGLGSAVVLPGVEAAERAGVPAFLETSAPRNLPFYERLGFTVTADVEVPEGPRTWCMTRKPGA
modifications: Synthetic Immune Receptor (SIR)
B2: 092515-Y08 (protein)
chain: MALPVTALLLPLALLLHAARPDEIVLTQSPATLSLSPGERATLSCSASSSVSYMHWYQQKPGQAPRLLIYDTSKLASGIPARFSGSGSGTDFTLTISSLEPEDVAVYYCFQGSVYPFTFGQGTKLEIKRGGGGSGGGGSGGGGSQVQLQESGPGLVKPSQTLSLTCTVSGGSISTSGMGVGWIRQHPGKGLEWIGHIWWDDDKRYNPALKSRVTISVDTSKNQFSLKLSSVTAADTAVYYCARMELWSYYFDYWGQGTLVTVSSLESWKDASGWSCTDPQPLKEQPALNDSRYCLSSRLRVSATFWQNPRNHFRCQVQFYGLSENDEWTQDRAKPVTQIVSAEAWGRADCGFTSESYQQGVLSATILYEILLGKATLYAVLVSALVLMAMVKRKDSRGRAKRSGSGATNFSLLKQAGDVEENPGPTSMALPVTALLLPLALLLHAARPDIQMTQTTSSLSASLGDRVTISCRASQDISKYLNWYQQKPDGTVKLLIYHTSRLHSGVPSRFSGSGSGTDYSLTISNLEQEDIATYFCQQGNTLPYTFGGGTKLEITTREQKLISEEDLSSCDVKLVEKSFETDTNLNFQNLSVIGFRILLLKVAGFNLLMTLRLWSSSSRAKRSGSGVKQTLNFDLLKLAGDVESNPGPSRGHMTEYKPTVRLATRDDVPRAVRTLAAAFADYPATRHTVDPDRHIERVTELQELFLTRVGLDIGKVWVADDGAAVAVWTTPESVEAGAVFAEIGPRMAELSGSRLAAQQQMEGLLAPHRPKEPAWFLATVGVSPDHQGKGLGSAVVLPGVEAAERAGVPAFLETSAPRNLPFYERLGFTVTADVEVPEGPRTWCMTRKPGA
modifications: Synthetic Immune Receptor (SIR)
B3: 102616-D06 (protein)
chain: MALPVTALLLPLALLLHAARPDVQMIQTPDSLAVSLGQRATISCRASESVDNYGISFMHWYQQKPGQSPKLLIYRASNLESGIPARFSGSGSRTDFTLTINPVETDDVATYYCQQNNKDPPTFGGGTKLEIKLEGKPIPNPLLGLDSTGSGEDLKNVFPPEVAVFEPSKAEIAHTQKATLVCLATGFYPDHVELSWWVNGKEVHSGVCTDPQPLKEQPALNDSRYCLSSRLRVSATFWQNPRNHFRCQVQFYGLSENDEWTQDRAKPVTQIVSAEAWGRADCGITSASYHQGVLSATILYEILLGKATLYAVLVSALVLMAMVKRKDSRGRAKRSGSGATNFSLLKQAGDVEENPGPTSMDWIWRILFLVGAATGAHSFEGGGGSQVQLQQSGAELVKPGASVKISCKASGYAFSSYWMNWVKQRPGKGLEWIGQIYPGDGDTTYNGKFKGKATLTADKSSSTVYMQLNSLTSEDSAVYFCVRYYYGSSGYFDYWGQGTTLTVSSTREQKLISEEDGSGIQNPDPAVYQLRDSKSSDKSVCLFTDFDSQTNVSQSKDSDVYITDKCVLDMRSMDFKSNSAVAWSNKSDFACANAFNNSIIPEDTFFPSSDVPCDVKLVEKSFETDTNLNFQNLSVIGFRILLLKVAGFNLLMTLRLWSSRAKRSGSGVKQTLNFDLLKLAGDVESNPGPSRGHMTEYKPTVRLATRDDVPRAVRTLAAAFADYPATRHTVDPDRHIERVTELQELFLTRVGLDIGKVWVADDGAAVAVWTTPESVEAGAVFAEIGPRMAELSGSRLAAQQQMEGLLAPHRPKEPAWFLATVGVSPDHQGKGLGSAVVLPGVEAAERAGVPAFLETSAPRNLPFYERLGFTVTADVEVPEGPRTWCMTRKPGA
modifications: Synthetic Immune Receptor (SIR)
B4: 041216 C02 (protein)
chain: MALPVTALLLPLALLLHAARPDEIVLTQSPATLSLSPGERATLSCSASSSVSYMHWYQQKPGQAPRLLIYDTSKLASGIPARFSGSGSGTDFTLTISSLEPEDVAVYYCFQGSVYPFTFGQGTKLEIKRGGGGSGGGGSGGGGSQVQLQESGPGLVKPSQTLSLTCTVSGGSISTSGMGVGWIRQHPGKGLEWIGHIWWDDDKRYNPALKSRVTISVDTSKNQFSLKLSSVTAADTAVYYCARMELWSYYFDYWGQGTLVTVSSLEGKPIPNPLLGLDSTGSGEDLKNVFPPEVAVFEPSKAEIAHTQKATLVCLATGFYPDHVELSWWVNGKEVHSGVCTDPQPLKEQPALNDSRYCLSSRLRVSATFWQNPRNHFRCQVQFYGLSENDEWTQDRAKPVTQIVSAEAWGRADCGITSASYHQGVLSATILYEILLGKATLYAVLVSALVLMAMVKRKDSRGRAKRSGSGATNFSLLKQAGDVEENPGPTSMALPVTALLLPLALLLHAARPDIQMTQSPATIENTSLSASVGDRVTITCRASQGISSWLTWYQQKPEKAPKSLIYAASSLQSGVPSRFSGSGSGTDFTLTISSLQPEDFATYYCQQYDSYPITFGQGTRLEIKGGGGSGGGGSGGGGSQVQLQQWGAGLLKPSETLSLTCAVYGGSFSAYYWSWIRQPPGKGLEWIGDINHGGGTNYNPSLKSRVTISVDTSKNQFSLKLNSVTAADTAVYYCASLTAYWGQGSLVTVSSTREQKLISEEDGSGIQNPDPAVYQLRDSKSSDKSVCLFTDFDSQTNVSQSKDSDVYITDKCVLDMRSMDFKSNSAVAWSNKSDFACANAFNNSIIPEDTFFPSSDVPCDVKLVEKSFETDTNLNFQNLSVIGFRILLLKVAGFNLLMTLRLWSSRAKRSGSGVKQTLNFDLLKLAGDVESNPGPSRGHMTEYKPTVRLATRDDVPRAVRTLAAAFADYPATRHTVDPDRHIERVTELQELFLTRVGLDIGKVWVADDGAAVAVWTTPESVEAGAVFAEIGPRMAELSGSRLAAQQQMEGLLAPHRPKEPAWFLATVGVSPDHQGKGLGSAVVLPGVEAAERAGVPAFLETSAPRNLPFYERLGFTVTADVEVPEGPRTWCMTRKPGA
modifications: Synthetic polynucleotide encoding a SIR
B5: 010417-B04 (protein)
chain: MALPVTALLLPLALLLHAARPLEGKPIPNPLLGLDSTGSGEDLKNVFPPEVAVFEPSKAEIAHTQKATLVCLATGFYPDHVELSWWVNGKEVHSGVCTDPQPLKEQPALNDSRYCLSSRLRVSATFWQNPRNHFRCQVQFYGLSENDEWTQDRAKPVTQIVSAEAWGRADCGITSASYHQGVLSATILYEILLGKATLYAVLVSALVLMAMVKRKDSRGRAKRSGSGATNFSLLKQAGDVEENPGPTSTMALPVTALLLPLALLLHAARPDEIVLTQSPATLSLSPGERATLSCSASSSVSYMHWYQQKPGQAPRLLIYDTSKLASGIPARFSGSGSGTDFTLTISSLEPEDVAVYYCFQGSVYPFTFGQGTKLEIKRGGGGSGGGGSGGGGSQVQLQESGPGLVKPSQTLSLTCTVSGGSISTSGMGVGWIRQHPGKGLEWIGHIWWDDDKRYNPALKSRVTISVDTSKNQFSLKLSSVTAADTAVYYCARMELWSYYFDYWGQGTLVTVSSTREAAAKDDIVMTQSPDSLTVSLGERTTINCKSSQSVLDSSKNKNSLAWYQQKPGQPPKLLLSWASTRESGIPDRFSGSGSGTDFTLTIDSLQPEDSATYYCQQSAHFPITFGQGTRLEIKGGGGSGGGGSGGGGSQVQLVQSGAEVKKPGASVKVSCKASGYTFTNYGMNWVKQAPGQGLKWMGWINTYTGEPTYADDFKGRVTMTSDTSTSTAYLELHNLRSDDTAVYYCARWSWSDGYYVYFDYWGQGTTVTVSSTREQKLISEEDGSGIQNPDPAVYQLRDSKSSDKSVCLFTDFDSQTNVSQSKDSDVYITDKCVLDMRSMDFKSNSAVAWSNKSDFACANAFNNSIIPEDTFFPSSDVPCDVKLVEKSFETDTNLNFQNLSVIGFRILLLKVAGFNLLMTLRLWSSRAKRSGSGVKQTLNFDLLKLAGDVESNPGPSRGHMTEYKPTVRLATRDDVPRAVRTLAAAFADYPATRHTVDPDRHIERVTELQELFLTRVGLDIGKVWVADDGAAVAVWTTPESVEAGAVFAEIGPRMAELSGSRLAAQQQMEGLLAPHRPKEPAWFLATVGVSPDHQGKGLGSAVVLPGVEAAERAGVPAFLETSAPRNLPFYERLGFTVTADVEVPEGPRTWCMTRKPGA

Tested on: target antigen-expressing cell line
Assay: Jurkat NFAT-GFP assay, coculture with target cell lines expressing the respective target antigen (summary Table 10A)
Type: cell-based, human
Parameters: key: The signs +/−, +, 2+ etc. after the name of the cell lines indicate the relative degree of positivity on the Jurkat-NFAT-GFP assay as measured by the % GFP positive cells; +: relative degree of positivity on the Jurkat-NFAT-GFP assay as measured by the % GFP positive cells; 2+: relative degree of positivity on the Jurkat-NFAT-GFP assay as measured by the % GFP positive cells
Conditions: relative % GFP positive cells; for NFAT-GFP ASSAY Positive Cell lines: RAJI: SIR-expressing Jurkat-NFAT-GFP cells cocultured with RAJI; for NFAT-GFP ASSAY Positive Cell lines: NALM6: SIR-expressing Jurkat-NFAT-GFP cells cocultured with NALM6
How it was run: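 Stable SIR expression in Jurkat-NFAT-GFP cells by lentiviral transfer and puromycin selection; coculture with target cells (E:T approximately 1:2) for 4 to 18 hours; flow cytometric measurement of NFAT-driven GFP; scoring as positive when % GFP-positive cells exceeds that of parental reporter cells.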

Molecule | NFAT-GFP ASSAY Positive Cell lines: RAJI | NFAT-GFP ASSAY Positive Cell lines: NALM6 | also measured
B1 | RAJI (+) | – | –
B2 | RAJI (+), NALM6 (+) | RAJI (+), NALM6 (+) | –
B3 | – | – | NFAT-GFP ASSAY Positive Cell lines: LAN5 (SIR-expressing Jurkat-NFAT-GFP cells cocultured with LAN5): LAN5 (+)
B4 | – | – | NFAT-GFP ASSAY Positive Cell lines: L428 (SIR-expressing Jurkat-NFAT-GFP cells cocultured with L428): L428 (+/−)
B5 | RAJI (+), NALM6 | + | NFAT-GFP ASSAY Positive Cell lines: HL60 (SIR-expressing Jurkat-NFAT-GFP cells cocultured with HL60): +/−

From patent US12269859B2, “Synthetic immune receptors and methods of use thereof” (Angeles Therapeutics, Inc., priority 2016, dated 2025)
